{"source": "patent US20250163127A1", "about": "(published 2025)", "key": {"CD80": {"target": "T1, CD80 (human)", "T1 chain": "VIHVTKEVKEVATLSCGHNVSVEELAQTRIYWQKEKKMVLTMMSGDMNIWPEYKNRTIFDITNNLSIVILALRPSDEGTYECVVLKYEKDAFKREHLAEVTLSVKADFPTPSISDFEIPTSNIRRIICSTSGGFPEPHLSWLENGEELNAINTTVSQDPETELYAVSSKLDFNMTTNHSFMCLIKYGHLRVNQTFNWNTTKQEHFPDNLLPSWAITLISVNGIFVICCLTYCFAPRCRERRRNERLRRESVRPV", "assay": "flow cytometry, CHO-CD80 cells"}, "human PD-1": {"target": "human PD-1 (human, UniProt Q15116)", "assay": "flow cytometry, Jurkat/IL-2/PD-1 cells"}, "PD-1": {"target": "PD-1 (human, UniProt Q15116)", "assay": "cell-based or functional assay"}}}
{"binder": "CTLA4 3037-Fc (Fc fusion) KAMHVAQPAVVLASSRGIASFVCEYASPWKATEVRVTVLRQADSQVTEVCAATYMMGSELTFPDDSICTGTSSGNQVNLTIRGLRAMDTGLYICKVEQMYPPPYLLGIGNGTQIYVIDPEPCPDSDGSGGGGSEPKSSDKTHTCPPCPAPEAEGAPSVFLFPPKPKDTLMISRTPEVTCVVVDVSHEDPEVKFNWYVDGVEVHNAKTKPREEQYNSTYRVVSVLTVLHQDWLNGKEYKCKVSNKALPAPIEKTISKAKGQPREPQVYTLPPSRDELTKNQVSLTCLVKGFYPSDIAVEWESNGQPENNYKTTPPVLDSDGSFFLYSKLTVDKSRWQQGNVFSCSVMHEALHNHYTQKSLSLSPG", "values": [{"measurement": "EC50", "setting": "CD80", "result": 1.7, "unit": "nM"}]}
{"binder": "CTLA-4 3037-Fc-PD-L1 303 (SEQ ID NO 3670) (Fc fusion) KAMHVAQPAVVLASSRGIASFVCEYASPWKATEVRVTVLRQADSQVTEVCAATYMMGSELTFPDDSICTGTSSGNQVNLTIRGLRAMDTGLYICKVEQMYPPPYLLGIGNGTQIYVIDPEPCPDSDGSGGGGSEPKSSDKTHTCPPCPAPEAEGAPSVFLFPPKPKDTLMISRTPEVTCVVVDVSHEDPEVKFNWYVDGVEVHNAKTKPREEQYNSTYRVVSVLTVLHQDWLNGKEYKCKVSNKALPAPIEKTISKAKGQPREPQVYTLPPSRDELTKNQVSLTCLVKGFYPSDIAVEWESNGQPENNYKTTPPVLDSDGSFFLYSKLTVDKSRWQQGNVFSCSVMHEALHNHYTQKSLSLSPGGGGGSGGGGSGGGGSFTVTVPKDLYVVEYGSNMTIECKFPVEKQLDLAALIVYWEMEGKDIIQFVHGEEDQKAQHSSYRQRARLLKDQLSLGNAALQITDVKLQDAGVYRCMISYGGGADYKRITVKVNA", "values": [{"measurement": "EC50", "setting": "CD80", "result": 1.9, "unit": "nM"}, {"measurement": "EC50", "setting": "human PD-1", "result": 4.5, "unit": "nM"}]}
{"binder": "CTLA4 3037-Fc-PD-L1 303 (SEQ ID NO 3672) (Fc fusion) KAMHVAQPAVVLASSRGIASFVCEYASPWKATEVRVTVLRQADSQVTEVCAATYMMGSELTFPDDSICTGTSSGNQVNLTIRGLRAMDTGLYICKVEQMYPPPYLLGIGNGTQIYVIDPEPCPDSDGSGGGGSEPKSSDKTHTCPPCPAPEAEGAPSVFLFPPKPKDTLMISRTPEVTCVVVDVSHEDPEVKFNWYVDGVEVHNAKTKPREEQYNSTYRVVSVLTVLHQDWLNGKEYKCKVSNKALPAPIEKTISKAKGQPREPQVYTLPPSRDELTKNQVSLTCLVKGFYPSDIAVEWESNGQPENNYKTTPPVLDSDGSFFLYSKLTVDKSRWQQGNVFSCSVMHEALHNHYTQKSLSLSPGGGGGSGGGGSGGGGSAFTVTVPKDLYVVEYGSNMTIECKFPVEKQLDLAALIVYWEMEGKDIIQFVHGEEDQKAQHSSYRQRARLLKDQLSLGNAALQITDVKLQDAGVYRCMISYGGGADYKRITVKVNA", "values": [{"measurement": "EC50", "setting": "CD80", "result": 0.921, "unit": "nM"}, {"measurement": "EC50", "setting": "human PD-1", "result": 6.8, "unit": "nM"}]}
{"binder": "PD-L1 303-Fc (SEQ ID NO 3531) (Fc fusion) FTVTVPKDLYVVEYGSNMTIECKFPVEKQLDLAALIVYWEMEGKDIIQFVHGEEDQKAQHSSYRQRARLLKDQLSLGNAALQITDVKLQDAGVYRCMISYGGGADYKRITVKVNAGGGGSGGGGSEPKSSDKTHTCPPCPAPEAEGAPSVFLFPPKPKDTLMISRTPEVTCVVVDVSHEDPEVKFNWYVDGVEVHNAKTKPREEQYNSTYRVVSVLTVLHQDWLNGKEYKCKVSNKALPAPIEKTISKAKGQPREPQVYTLPPCREEMTKNQVSLWCLVKGFYPSDIAVEWESNGQPENNYKTTPPVLDSDGSFFLYSKLTVDKSRWQQGNVFSCSVMHEALHNHYTQKSLSLSPG", "values": [{"measurement": "% CD25 Hi FoxP3 +", "setting": "PD-1", "result": 24.8, "unit": "% at 100 nM"}]}
{"binder": "PD-L1 303-COMP (other) FTVTVPKDLYVVEYGSNMTIECKFPVEKQLDLAALIVYWEMEGKDIIQFVHGEEDQKAQHSSYRQRARLLKDQLSLGNAALQITDVKLQDAGVYRCMISYGGGADYKRITVKVNAGGGGSGGGGSGGGGSDLGPQMLRELQETNAALQDVRELLRQQVREITFLKNTVMECDACGDYKDDDDKHHHHHH", "values": [{"measurement": "% CD25 Hi FoxP3 +", "setting": "PD-1", "result": 23.5, "unit": "% at 100 nM"}]}
{"binder": "PD-L1 303-Fc + Fc (Fc fusion) chain 1: HMSSVSAQAAAEPKSSDKTHTCPPCPAPEAEGAPSVFLFPPKPKDTLMISRTPEVTCVVVDVSHEDPEVKFNWYVDGVEVHNAKTKPREEQYNSTYRVVSVLTVLHQDWLNGKEYKCKVSNKALPAPIEKTISKAKGQPREPQVYTLPPCREEMTKNQVSLWCLVKGFYPSDIAVEWESNGQPENNYKTTPPVLDSDGSFFLYSKLTVDKSRWQQGNVFSCSVMHEALHNHYTQKSLSLSPGK chain 2: FTVTVPKDLYVVEYGSNMTIECKFPVEKQLDLAALIVYWEMEGKDIIQFVHGEEDQKAQHSSYRQRARLLKDQLSLGNAALQITDVKLQDAGVYRCMISYGGGADYKRITVKVNAGSGGSGGGGSGGGGSEPKSSDKTHTCPPCPAPEAEGAPSVFLFPPKPKDTLMISRTPEVTCVVVDVSHEDPEVKFNWYVDGVEVHNAKTKPREEQYNSTYRVVSVLTVLHQDWLNGKEYKCKVSNKALPAPIEKTISKAKGQPREPQVCTLPPSREEMTKNQVSLSCAVKGFYPSDIAVEWESNGQPENNYKTTPPVLDSDGSFFLVSKLTVDKSRWQQGNVFSCSVMHEALHNHYTQKSLSLSPGHHHHHH", "values": [{"measurement": "% CD25 Hi FoxP3 +", "setting": "PD-1", "result": 25.9, "unit": "% at 100 nM"}]}
{"binder": "PD-L2 1417-Fc + Fc (Fc fusion) chain 1: HMSSVSAQAAAEPKSSDKTHTCPPCPAPEAEGAPSVFLFPPKPKDTLMISRTPEVTCVVVDVSHEDPEVKFNWYVDGVEVHNAKTKPREEQYNSTYRVVSVLTVLHQDWLNGKEYKCKVSNKALPAPIEKTISKAKGQPREPQVYTLPPCREEMTKNQVSLWCLVKGFYPSDIAVEWESNGQPENNYKTTPPVLDSDGSFFLYSKLTVDKSRWQQGNVFSCSVMHEALHNHYTQKSLSLSPGK chain 2: LFTVTVPKELYIIEQGSNVTLECNFDTGSHVNLGAITASLQKVENDASPHRERATLLEEQLPLGRALFHIPQVQVRDEGQYRCIIIYGDAWDYKYLTLKVKAGSGGSGGGGSGGGGSEPKSSDKTHTCPPCPAPEAEGAPSVFLFPPKPKDTLMISRTPEVTCVVVDVSHEDPEVKFNWYVDGVEVHNAKTKPREEQYNSTYRVVSVLTVLHQDWLNGKEYKCKVSNKALPAPIEKTISKAKGQPREPQVCTLPPSREEMTKNQVSLSCAVKGFYPSDIAVEWESNGQPENNYKTTPPVLDSDGSFFLVSKLTVDKSRWQQGNVFSCSVMHEALHNHYTQKSLSLSPGHHHHHH", "values": [{"measurement": "% CD25 Hi FoxP3 +", "setting": "PD-1", "result": 26.8, "unit": "% at 100 nM"}]}
{"binder": "PD-L1 303-CTLA-4 3037-Fc (Fc fusion) FTVTVPKDLYVVEYGSNMTIECKFPVEKQLDLAALIVYWEMEGKDIIQFVHGEEDQKAQHSSYRQRARLLKDQLSLGNAALQITDVKLQDAGVYRCMISYGGGADYKRITVKVNAGSGGSGGGGSGGGGSKAMHVAQPAVVLASSRGIASFVCEYASPWKATEVRVTVLRQADSQVTEVCAATYMMGSELTFPDDSICTGTSSGNQVNLTIRGLRAMDTGLYICKVEQMYPPPYLLGIGNGTQIYVIDPEPCPDSDGGGGSGSGGGGSEPKSSDKTHTCPPCPAPEAEGAPSVFLFPPKPKDTLMISRTPEVTCVVVDVSHEDPEVKFNWYVDGVEVHNAKTKPREEQYNSTYRVVSVLTVLHQDWLNGKEYKCKVSNKALPAPIEKTISKAKGQPREPQVYTLPPSRDELTKNQVSLTCLVKGFYPSDIAVEWESNGQPENNYKTTPPVLDSDGSFFLYSKLTVDKSRWQQGNVFSCSVMHEALHNHYTQKSLSLSPG", "values": [{"measurement": "EC50", "setting": "CD80", "result": 1.4, "unit": "nM"}, {"measurement": "EC50", "setting": "human PD-1", "result": 1, "unit": "nM"}]}
{"binder": "PD-L1 303-CTLA4 3060-Fc (Fc fusion) FTVTVPKDLYVVEYGSNMTIECKFPVEKQLDLAALIVYWEMEGKDIIQFVHGEEDQKAQHSSYRQRARLLKDQLSLGNAALQITDVKLQDAGVYRCMISYGGGADYKRITVKVNAGSGGSGGGGSGGGGSKAMHVAQPAVVFASSHGIASFVCEYASPWKATEVRVTVLRQADSQVTEVCAATYMTGNELTFLDDSICTGTSSGNQVNLTIQGLRAMDTGLYICKVEQMYPPPYLLGIGNGTQIYVIDPEPCPDSDGGGGSGSGGGGSEPKSSDKTHTCPPCPAPEAEGAPSVFLFPPKPKDTLMISRTPEVTCVVVDVSHEDPEVKFNWYVDGVEVHNAKTKPREEQYNSTYRVVSVLTVLHQDWLNGKEYKCKVSNKALPAPIEKTISKAKGQPREPQVYTLPPSRDELTKNQVSLTCLVKGFYPSDIAVEWESNGQPENNYKTTPPVLDSDGSFFLYSKLTVDKSRWQQGNVFSCSVMHEALHNHYTQKSLSLSPG", "values": [{"measurement": "EC50", "setting": "CD80", "result": 3.4, "unit": "nM"}, {"measurement": "EC50", "setting": "human PD-1", "result": 0.5, "unit": "nM"}]}
{"binder": "CTLA-4 3037-PD-L1 303-Fc (Fc fusion) KAMHVAQPAVVLASSRGIASFVCEYASPWKATEVRVTVLRQADSQVTEVCAATYMMGSELTFPDDSICTGTSSGNQVNLTIRGLRAMDTGLYICKVEQMYPPPYLLGIGNGTQIYVIDPEPCPDSDGSGGSGGGGSGGGGSFTVTVPKDLYVVEYGSNMTIECKFPVEKQLDLAALIVYWEMEGKDIIQFVHGEEDQKAQHSSYRQRARLLKDQLSLGNAALQITDVKLQDAGVYRCMISYGGGADYKRITVKVNAGGGGSGSGGGGSEPKSSDKTHTCPPCPAPEAEGAPSVFLFPPKPKDTLMISRTPEVTCVVVDVSHEDPEVKFNWYVDGVEVHNAKTKPREEQYNSTYRVVSVLTVLHQDWLNGKEYKCKVSNKALPAPIEKTISKAKGQPREPQVYTLPPSRDELTKNQVSLTCLVKGFYPSDIAVEWESNGQPENNYKTTPPVLDSDGSFFLYSKLTVDKSRWQQGNVFSCSVMHEALHNHYTQKSLSLSPG", "values": [{"measurement": "EC50", "setting": "CD80", "result": 2.3, "unit": "nM"}, {"measurement": "EC50", "setting": "human PD-1", "result": 111, "unit": "nM"}]}
{"binder": "CTLA-4 3060-PD-L1 303-Fc (Fc fusion) KAMHVAQPAVVFASSHGIASFVCEYASPWKATEVRVTVLRQADSQVTEVCAATYMTGNELTFLDDSICTGTSSGNQVNLTIQGLRAMDTGLYICKVEQMYPPPYLLGIGNGTQIYVIDPEPCPDSDGSGGSGGGGSGGGGSFTVTVPKDLYVVEYGSNMTIECKFPVEKQLDLAALIVYWEMEGKDIIQFVHGEEDQKAQHSSYRQRARLLKDQLSLGNAALQITDVKLQDAGVYRCMISYGGGADYKRITVKVNAGGGGSGSGGGGSEPKSSDKTHTCPPCPAPEAEGAPSVFLFPPKPKDTLMISRTPEVTCVVVDVSHEDPEVKFNWYVDGVEVHNAKTKPREEQYNSTYRVVSVLTVLHQDWLNGKEYKCKVSNKALPAPIEKTISKAKGQPREPQVYTLPPSRDELTKNQVSLTCLVKGFYPSDIAVEWESNGQPENNYKTTPPVLDSDGSFFLYSKLTVDKSRWQQGNVFSCSVMHEALHNHYTQKSLSLSPG", "values": [{"measurement": "EC50", "setting": "CD80", "result": 2.3, "unit": "nM"}, {"measurement": "EC50", "setting": "human PD-1", "result": 0.6, "unit": "nM"}]}
